# Measured values: patent US20230322908A1 (AC IMMUNE, published 2023)
# T1: TP-51 peptide (aa 352-414 of SEQ ID NO:1) (human)
# T1 construct: Synthetic peptide (Pepscan)
# T1 peptide: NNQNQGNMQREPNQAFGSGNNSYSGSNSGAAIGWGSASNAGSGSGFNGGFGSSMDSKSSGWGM
# Key:
# [1] = biological target: T2, recombinant human full-length TDP-43 (TAR DNA-binding protein 43), soluble (human, UniProt Q13148 1-414); assay: SPR 8K, immobilized soluble TDP-43; IgG1
# T2 construct: Used on Luminex beads, coated on ELISA plates, and immobilized or injected in SPR; also called FL TDP-43; TDP-43 protein
# T2 sequence (Q13148 whole entry): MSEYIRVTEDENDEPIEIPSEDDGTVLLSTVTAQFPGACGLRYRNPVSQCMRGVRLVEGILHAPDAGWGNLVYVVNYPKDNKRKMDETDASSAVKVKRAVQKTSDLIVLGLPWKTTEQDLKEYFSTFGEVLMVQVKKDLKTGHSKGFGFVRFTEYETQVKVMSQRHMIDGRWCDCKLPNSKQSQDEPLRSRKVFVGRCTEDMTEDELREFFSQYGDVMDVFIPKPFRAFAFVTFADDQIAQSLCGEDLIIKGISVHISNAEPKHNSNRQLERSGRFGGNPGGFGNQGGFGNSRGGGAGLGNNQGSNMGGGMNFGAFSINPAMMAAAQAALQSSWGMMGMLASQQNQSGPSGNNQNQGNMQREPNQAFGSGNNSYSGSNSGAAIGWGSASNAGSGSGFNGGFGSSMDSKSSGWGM
# Procedure: (§1) The instrument was primed with running buffer PBS-P+ and flow cells (Fc) 1 and 2 of channels 1-8 were activated with a fresh solution of EDC/NHS (Amine Coupling Kit, 1:1 ratio of both reagents, GE Healthcare Life Sciences, BR-1006-33) at 10 µL/min for 420 sec. Soluble TDP-43 (Selvita) was diluted in sodium acetate pH 4.5 to a final concentration of 5 µg/mL and injected for 900 sec with a flow rate of 5 µL/min on Fc 2. All flow cells were quenched with 1 M ethanol amine (GE Healthcare Life Sciences, BR-1006-33), at 10 µL/min for 420 sec. Immobilization levels after ethanolamine quenching were 680 RU on all eight channels. Prior to analysis, two Startup cycles were run. Increasing mAbs concentrations were injected in single-cycle kinetics ranging from 1.2 to 100 nM, prepared from a 3-fold serial dilution in running buffer, with a contact time of 300 sec and a dissociation time of 900 sec at a flow rate of 30 µL/min. Each cycle was followed by one regeneration using 10 mM Glycine-HCl pH 1.7 with a contact time of 30 sec at 30 µL/min, followed by a stabilization period of 300 sec. Results obtained from single-cycle kinetics were double-referenced using the blank Fc 1 and buffer cycles and evaluated using Biacore 8 K evaluation software using the 1:1 kinetic fit model with RI and global Rmax. The following kinetic parameters were obtained: association rate constant (ka), dissociation rate constant (kd), affinity constant (KD) and saturation response (Rmax).
# [2] = biological target: T1, TP-51 peptide (aa 352-414 of SEQ ID …); assay: SPR 8K, mAb captured, TP-51 injected; IgG1
# Procedure: (§2) The instrument was primed with running buffer PBS-P+. Fc 1-2 of channels 1-8 (8 K) were activated with a fresh solution of EDC/NHS(Amine Coupling Kit, 1:1 ratio of both reagents, GE Healthcare Life Sciences, BR-1006-33) at 10 µL/min for 420 sec and goat anti-human antibody (GE Healthcare Life Sciences, 29234600) was immobilized at 25 µg/mL in 10 mM sodium acetate pH 5 for 420 sec. Next, all Fc were quenched with 1 M ethanol amine(GE Healthcare Life Sciences, BR-1006-33), for 420 sec. Any non-covalently bound antibodies were removed by two regenerations with 10 mM Glycine-HCl pH 1.7 for 30 sec. Immobilization levels were evaluated following ethanolamine quenching (10000 RU for all channels).
# (§3) Each cycle started with non-covalent capture of humanized variants which were diluted in running buffer to a final concentration of 2 µg/mL and injected for 60 sec with a flow rate of 10 µL/min. TDP-43 mAbs were captured on channels 1-8, leaving Fc 1 as a blank Fc. Capture levels were evaluated following a 120 sec stabilization period after each mAb injection and ranged from 300-500 RU.
# (§4) Injections of TP-51 peptide (Pepscan) were performed in single-cycle kinetics with increasing concentrations ranging from 1.2-100 nM prepared from serial 3-fold dilutions. Injections were performed with contact times of 300 sec/injection at a flow rate of 25 µL/min. A dissociation phase of 3600 sec followed the final injection. Sensor surface was regenerated by one injection of 10 mM Glycine-HCl pH 1.7 at a flow rate of 10 µL/min for 120 sec, followed by a stabilization period of 300 sec. Results obtained from single-cycle kinetics were double-referenced using the blank Fc 1 and buffer cycles and evaluated by Biacore 8 K evaluation software with 1:1 kinetic fit model with RI and global Rmax. The following kinetic parameters were obtained: association rate constant (ka), dissociation rate constant (kd), affinity constant (KD) and saturation response (Rmax).
# [3] = biological target: T2, recombinant human full-length TDP-43 …; assay: SPR 8K, immobilized soluble TDP-43
# Procedure: as §1
# [4] = biological target: T1, TP-51 peptide (aa 352-414 of SEQ ID …); assay: SPR 8K, mAb captured, TP-51 injected
# Procedure: as §2, §3, §4
Kd [1] [nM],koff [1] [s⁻¹],kon [1] [M⁻¹ s⁻¹],Kd [2] [nM],koff [2] [s⁻¹],kon [2] [M⁻¹ s⁻¹],Kd [3] [nM],koff [3] [s⁻¹],kon [3] [M⁻¹ s⁻¹],Kd [4] [nM],koff [4] [s⁻¹],kon [4] [M⁻¹ s⁻¹],Binder
0.652,2.2e-05,47000,6.4,0.0011,170000,–,–,–,–,–,–,"hACI-7069-633B12-Ab1_H16L14 (IgG1) (antibody, V domains shown, Human IgG1 / kappa) VH: EVQLVQSGAEVKKPGASVKVSCKASGFTFTEYSMHWVRQAPGQRLEWMGGINPGNAGTSYNQKFKGRVTITVDTSASTAYMELSSLRSEDTAVYYCARESWGQGTTVTVSS VL: DVVMTQSPLSLPVTLGQPASISCKSSQSLLHSDAKTYLNWLQQRPGQSPRRLIYLVSKLDSGVPDRFSGSGSGTDFTLKISRVEAEDLGVYYCFQGTHFPHTFGQGTKLEIK"
–,–,–,–,–,–,0.45,1.4e-05,32000,2.1,0.00021,97000,"hACI-7069-633B12-Ab1_H20L18 (IgG4) (antibody, V domains shown) VH: EVQLVQSGAEVKKPGASVKVSCKTSGFTFTEYSMHWVRQAPGQRLEWIGGINPGNAGTSYNQKFKGRVTITVDTSASTAYMELSSLRSEDTAVYYCARESWGQGTTVTVSS VL: DVVMTQSPLSLPVTLGQPASISCKSSQSLLHSDAKTYLNWLQQRPGQSPRRLIYLVSKLDSRVPDRFSGSGSGTDFTLKISRVEAEDLGVYYCFQGTHFPHTFGQGTKLEIK"
0.205,9.6e-06,48000,2.8,0.00015,53000,–,–,–,–,–,–,"hACI-7069-633B12-Ab1_H19L18 (IgG1 isotype) (antibody, V domains shown, Human IgG1 / kappa; also called hACI-7069-633B12-Ab1_H19L18 (hIgG1 isotype)) VH: QVQLVQSGAEVKKPGASVKVSCKTSGFTFTEYSMHWVRQAPGQRLEWIGGINPGNAGTSYNQKFKGRVTITVDTSASTAYMELSSLRSEDTAVYYCARESWGQGTTVTVSS VL: DVVMTQSPLSLPVTLGQPASISCKSSQSLLHSDAKTYLNWLQQRPGQSPRRLIYLVSKLDSRVPDRFSGSGSGTDFTLKISRVEAEDLGVYYCFQGTHFPHTFGQGTKLEIK"
0.235,1.8e-05,47000,1.4,0.00023,170000,–,–,–,–,–,–,"hACI-7069-633B12-Ab1_H20L19 (IgG1) (antibody, V domains shown, Human IgG1 / kappa) VH: EVQLVQSGAEVKKPGASVKVSCKTSGFTFTEYSMHWVRQAPGQRLEWIGGINPGNAGTSYNQKFKGRVTITVDTSASTAYMELSSLRSEDTAVYYCARESWGQGTTVTVSS VL: DVVMTQSPLSLPVTLGQPASISCKSSQSLLHSDAKTYLNWLQQRPGQSPKRLIYLVSKLDSRVPDRFSGSGSGTDFTLKISRVEAEDLGVYYCFQGTHFPHTFGQGTKLEIK"
0.113,8.3e-06,74800,–,–,–,–,–,–,–,–,–,"hACI-7069-633B12-Ab1_H15L18 (IgG1) (antibody, V domains shown, Human IgG1 / kappa) VH: QVQLVQSGAEVKKPGASVKVSCKASGFTFTEYSMHWVRQAPGQRLEWMGGINPGNAGTSYNQKFKGRVTITVDTSASTAYMELSSLRSEDTAVYYCARESWGQGTTVTVSS VL: DVVMTQSPLSLPVTLGQPASISCKSSQSLLHSDAKTYLNWLQQRPGQSPRRLIYLVSKLDSRVPDRFSGSGSGTDFTLKISRVEAEDLGVYYCFQGTHFPHTFGQGTKLEIK"
–,–,–,–,–,–,0.508,1.5e-05,29000,2.3,0.00026,110000,"hACI-7069-633B12-Ab1_H19L19 (IgG4) (antibody, V domains shown) VH: QVQLVQSGAEVKKPGASVKVSCKTSGFTFTEYSMHWVRQAPGQRLEWIGGINPGNAGTSYNQKFKGRVTITVDTSASTAYMELSSLRSEDTAVYYCARESWGQGTTVTVSS VL: DVVMTQSPLSLPVTLGQPASISCKSSQSLLHSDAKTYLNWLQQRPGQSPKRLIYLVSKLDSRVPDRFSGSGSGTDFTLKISRVEAEDLGVYYCFQGTHFPHTFGQGTKLEIK"
0.145,6.4e-06,44000,6.2,0.00021,35000,–,–,–,–,–,–,"hACI-7069-633B12-Ab1_H23L20 (IgG1) (antibody, V domains shown, Human IgG1 / kappa) VH: QVQLVQSGAEVKKPGASVKVSCKTSGFTFTEYSMHWVRQAPGQRLEWIGGINPGNGGTSYNQKFKGRVTITVDTSASTAYMELSSLRSEDTAVYYCARESWGQGTTVTVSS VL: DVVMTQSPLSLPVTLGQPASISCKSSQSLLHSDGKTYLNWLQQRPGQSPRRLIYLVSKLDSRVPDRFSGSGSGTDFTLKISRVEAEDLGVYYCWQGTHFPHTFGQGTKLEIK"
0.15,8.4e-06,58000,2.4,9.3e-05,39000,–,–,–,–,–,–,"cACI-7069-633B12-Ab1 (human IgG1 chimeric) (antibody, V domains shown, also called chimeric antibody) VH: EVQLQQSGPELVKPGASVKISCKTSGFTFTEYSMHWVKQSHGKSLEWIGGINPNNGGTSYNQKFKGKATLTVDKSSSTAYMELRSLTSEDSAVYYCARESWGQGTTLTVSS VL: not shown"
